Data published in paper PMC12416549 (2024).
Substitutions are numbered along the chain they refer to. Numbers in names are those of the source.

Target: T1, TNFR1 (Homo sapiens, UniProt P19438)
T1 chain: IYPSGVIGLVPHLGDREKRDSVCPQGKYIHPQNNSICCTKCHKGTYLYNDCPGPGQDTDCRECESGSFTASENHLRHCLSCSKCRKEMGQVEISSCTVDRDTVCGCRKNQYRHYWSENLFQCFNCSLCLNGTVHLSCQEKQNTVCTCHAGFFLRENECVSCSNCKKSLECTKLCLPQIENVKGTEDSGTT
Assay: yeast display SC50

B1: Y37E (designed binder)
chain: MTLQELLREEALRRAEAEAFRYALELLAEKFPEQKEELLDLAEEIESQIRSLSGVDVEDVRKFLDKEWAWVKELLAEHPAELAEVEAARAARLAELRAEVEAKVAA
In the case of B1, the “apparent Kd (screen)” value is reported as 7.78 nM.

B2: E81F (designed binder)
chain: B1 chain with E37Y, E81F
With B2 the “apparent Kd (screen)” value was 0.718 nM.

B3: A69T (designed binder)
chain: B1 chain with E37Y, A69T
B3 was tested, and the “apparent Kd (screen)” value was 0.718 nM.

B4: A23P (designed binder)
chain: B1 chain with A23P, E37Y
B4 was tested, and the “apparent Kd (screen)” value was 0.718 nM.

B5: E43G (designed binder)
chain: B1 chain with E37Y, E43G
For B5, the “apparent Kd (screen)” value was 0.79 nM.

B6: S47V (designed binder)
chain: B1 chain with E37Y, S47V
For B6, the “apparent Kd (screen)” value was 0.446 nM.

B7: E46A (designed binder)
chain: B1 chain with E37Y, E46A
With B7 the “apparent Kd (screen)” value was 0.49 nM.

B8: E73Y (designed binder)
chain: B1 chain with E37Y, E73Y
For B8, the “apparent Kd (screen)” value was 0.539 nM.

B9: A15L (designed binder)
chain: B1 chain with A15L, E37Y
B9 was tested, and the “apparent Kd (screen)” value was 0.368 nM.

B10: M1Y (designed binder)
chain: B1 chain with M1Y, E37Y
With B10 the “apparent Kd (screen)” value was 0.593 nM.

B11: E25D (designed binder)
chain: B1 chain with E25D, E37Y
With B11 the “apparent Kd (screen)” value was 1.27 nM.

B12: A87P (designed binder)
chain: B1 chain with E37Y, A87P
B12 was tested, and the “apparent Kd (screen)” value was 0.956 nM.

B13: V55G (designed binder)
chain: B1 chain with E37Y, V55G
B13 was tested, and the “apparent Kd (screen)” value was 0.539 nM.

B14: R97Q (designed binder)
chain: B1 chain with E37Y, R97Q
With B14 the “apparent Kd (screen)” value was 0.653 nM.

B15: R8M (designed binder)
chain: B1 chain with R8M, E37Y
With B15 the “apparent Kd (screen)” value was 0.49 nM.

B16: L75N (designed binder)
chain: B1 chain with E37Y, L75N
B16 was tested, and the “apparent Kd (screen)” value was 0.593 nM.

B17: L82A (designed binder)
chain: B1 chain with E37Y, L82A
With B17 the “apparent Kd (screen)” value was 0.869 nM.

B18: L27A (designed binder)
chain: B1 chain with L27A, E37Y
In the case of B18, the “apparent Kd (screen)” value is reported as 0.593 nM.

B19: Q4P (designed binder)
chain: B1 chain with Q4P, E37Y
In the case of B19, the “apparent Kd (screen)” value is reported as 3.3 nM.

B20: F31D (designed binder)
chain: B1 chain with F31D, E37Y
B20 was tested, and the “apparent Kd (screen)” value was 2.25 nM.

B21: A88N (designed binder)
chain: B1 chain with E37Y, A88N
With B21 the “apparent Kd (screen)” value was 0.718 nM.

B22: S47P (designed binder)
chain: B1 chain with E37Y, S47P
For B22, the “apparent Kd (screen)” value was 3.3 nM.

B23: Y37P (designed binder)
chain: B1 chain with E37P
In the case of B23, the “apparent Kd (screen)” value is reported as 18.3 nM.

B24: A69Q (designed binder)
chain: B1 chain with E37Y, A69Q
For B24, the “apparent Kd (screen)” value was 0.653 nM.

B25: L38I (designed binder)
chain: B1 chain with E37Y, L38I
In the case of B25, the “apparent Kd (screen)” value is reported as 0.405 nM.

B26: E67Q (designed binder)
chain: B1 chain with E37Y, E67Q
For B26, the “apparent Kd (screen)” value was 11.4 nM.

B27: K103D (designed binder)
chain: B1 chain with E37Y, K103D
With B27 the “apparent Kd (screen)” value was 0.718 nM.

B28: D65Q (designed binder)
chain: B1 chain with E37Y, D65Q
In the case of B28, the “apparent Kd (screen)” value is reported as 0.79 nM.

B29: L64H (designed binder)
chain: B1 chain with E37Y, L64H
For B29, the “apparent Kd (screen)” value was 0.956 nM.

B30: L82W (designed binder)
chain: B1 chain with E37Y, L82W
With B30 the “apparent Kd (screen)” value was 0.956 nM.

B31: E29G (designed binder)
chain: B1 chain with E29G, E37Y
In the case of B31, the “apparent Kd (screen)” value is reported as 0.49 nM.

B32: L38V (designed binder)
chain: B1 chain with E37Y, L38V
In the case of B32, the “apparent Kd (screen)” value is reported as 0.172 nM.

B33: K72G (designed binder)
chain: B1 chain with E37Y, K72G
B33 was tested, and the “apparent Kd (screen)” value was 0.653 nM.

B34: L27W (designed binder)
chain: B1 chain with L27W, E37Y
In the case of B34, the “apparent Kd (screen)” value is reported as 0.956 nM.

B35: L7H (designed binder)
chain: B1 chain with L7H, E37Y
With B35 the “apparent Kd (screen)” value was 7.07 nM.

B36: E95C (designed binder)
chain: B1 chain with E37Y, E95C
B36 was tested, and the “apparent Kd (screen)” value was 0.49 nM.

B37: I49F (designed binder)
chain: B1 chain with E37Y, I49F
For B37, the “apparent Kd (screen)” value was 0.539 nM.

B38: E36H (designed binder)
chain: B1 chain with E36H, E37Y
B38 was tested, and the “apparent Kd (screen)” value was 0.49 nM.

B39: E43R (designed binder)
chain: B1 chain with E37Y, E43R
For B39, the “apparent Kd (screen)” value was 0.593 nM.

B40: I49K (designed binder)
chain: B1 chain with E37Y, I49K
With B40 the “apparent Kd (screen)” value was 7.78 nM.

B41: I49M (designed binder)
chain: B1 chain with E37Y, I49M
In the case of B41, the “apparent Kd (screen)” value is reported as 0.869 nM.

B42: E36W (designed binder)
chain: B1 chain with E36W, E37Y
For B42, the “apparent Kd (screen)” value was 0.539 nM.

B43: M1S (designed binder)
chain: B1 chain with M1S, E37Y
B43 was tested, and the “apparent Kd (screen)” value was 0.539 nM.

B44: A98S (designed binder)
chain: B1 chain with E37Y, A98S
B44 was tested, and the “apparent Kd (screen)” value was 0.653 nM.

B45: S53L (designed binder)
chain: B1 chain with E37Y, S53L
In the case of B45, the “apparent Kd (screen)” value is reported as 2.25 nM.

B46: A90P (designed binder)
chain: B1 chain with E37Y, A90P
For B46, the “apparent Kd (screen)” value was 1.4 nM.

B47: E73N (designed binder)
chain: B1 chain with E37Y, E73N
B47 was tested, and the “apparent Kd (screen)” value was 1.86 nM.

B48: A80P (designed binder)
chain: B1 chain with E37Y, A80P
For B48, the “apparent Kd (screen)” value was 0.446 nM.

B49: E73V (designed binder)
chain: B1 chain with E37Y, E73V
With B49 the “apparent Kd (screen)” value was 1.05 nM.

B50: R97Y (designed binder)
chain: B1 chain with E37Y, R97Y
With B50 the “apparent Kd (screen)” value was 0.49 nM.

B51: V100S (designed binder)
chain: B1 chain with E37Y, V100S
B51 was tested, and the “apparent Kd (screen)” value was 0.49 nM.

B52: S47H (designed binder)
chain: B1 chain with E37Y, S47H
In the case of B52, the “apparent Kd (screen)” value is reported as 0.539 nM.

B53: K72M (designed binder)
chain: B1 chain with E37Y, K72M
B53 was tested, and the “apparent Kd (screen)” value was 0.49 nM.

B54: D56Q (designed binder)
chain: B1 chain with E37Y, D56Q
In the case of B54, the “apparent Kd (screen)” value is reported as 1.4 nM.

B55: Q4L (designed binder)
chain: B1 chain with Q4L, E37Y
B55 was tested, and the “apparent Kd (screen)” value was 0.446 nM.

B56: D65V (designed binder)
chain: B1 chain with E37Y, D65V
For B56, the “apparent Kd (screen)” value was 0.956 nM.

B57: E29W (designed binder)
chain: B1 chain with E29W, E37Y
In the case of B57, the “apparent Kd (screen)” value is reported as 0.653 nM.

B58: E44K (designed binder)
chain: B1 chain with E37Y, E44K
B58 was tested, and the “apparent Kd (screen)” value was 0.956 nM.

B59: R89H (designed binder)
chain: B1 chain with E37Y, R89H
For B59, the “apparent Kd (screen)” value was 0.539 nM.
